Data reported in patent US20260028391A1.

How the values were obtained:
[1] = target: biot-MPV-F D280N (metapneumovirus (MPV)); assay: BLI, SA sensor loaded with biot-MPV-F D280N (sheet title 'MPV-G D280N'; head of the value column printed 'MPV-F', not 'KD (M)'), mAb 5 ug/ml, 4 min association, 6 min dissociation
[2] = target: RSV fusion glycoprotein (RSV-F) of the RSV used in the neutralization of Table 33 (respiratory syncytial virus, strain not stated); assay: cell-based or functional assay
[3] = target: fusion glycoprotein (F) of the MPV used in the neutralization of Table 34 (metapneumovirus); assay: cell-based or functional assay
[4] = target: MPV F WT expressed on transfected Expi293F cells (metapneumovirus (MPV)); assay: flow cytometry, transfected Expi293F cells, fixed and permeabilised
[5] = target: MPV F D280N mutant expressed on transfected Expi293F cells (metapneumovirus (MPV)); assay: as above
[6] = target: biot-MPV-F wt (metapneumovirus (MPV)); assay: BLI, SA sensor loaded with biot-MPV-F wt, mAb 5 ug/ml, 4 min association, 6 min dissociation
[7] = target: biot-MPV-F wt (metapneumovirus (MPV)); assay: BLI (Octet), biotinylated F on SA sensors, mAb 5 µg/ml
[8] = target: biot-MPV-F D280N (metapneumovirus (MPV)); assay: as above
[9] = target: DS-Cav1 RSV F (respiratory syncytial virus); assay: ELISA on DS-Cav1 RSV F
[10] = target: MPV fusion glycoprotein without the D280N mutation (MPV-F D280) (metapneumovirus); assay: biolayer interferometry (BLI), rIgG1 with M428L/N434S
[11] = target: MPV fusion glycoprotein with the D280N mutation (MPV-F N280) (metapneumovirus); assay: as above
[12] = target: fusion glycoprotein of the RSV used in the neutralization assay of Example 1 (respiratory syncytial virus (strain not stated)); assay: cell-based or functional assay
[13] = target: RSV fusion glycoprotein (RSV-F) (respiratory syncytial virus (strain not stated)); assay: SPR; sensors loaded with RSV-F, mAb in solution (Experiment 2)

B1: MPK104-v1.1-rIgG1m17,1-LS (antibody, V domains shown)
VH: QVQLVESGGGLVKPGGSLRLSCAASGFTIDGYGMNWVRQAPGKGLEWVSSISASSNYIYYADSMKGRFTISRDNGKNSLYLQMHSLRVEDTGVYYCARAPLEPPYFDLWGRGTLVTVSS
VL: QSVLTQPPSVSGAPGQRVTISCSGGSSNIGAGYDVHWYQQVPGKGPKVLIYGNNNRPSGVPDRFSGSNFGASASLAITGLQADDEADYFCQSYDRRLGGPVFGGGTKLTVL
[1]
  Kd: 0.497 nM
[2]
  IC50 (ng/mL) in neutralization against RSV: 6.61 ng/mL
[3]
  IC50 (ng/mL) in neutralization against MPV: 1.36 ng/mL
[4]
  Binding (FACS) relative to parental mAb MPK104-v1.1: 1
[5]
  Binding (FACS) relative to parental mAb MPK104-v1.1: 1
[6]
  Kd: < 0.001 nM

B2: MPK104-v1.3-rIgG1m17,1-LS (antibody, V domains shown)
VH: QVQLVESGGGLVKPGGSLRLSCAASGFTIDGYGMNWVRQAPGKGLEWVSSISASSNYIYYADSMKGRFTISRDNGKNSLYLQMHSLRVEDTGVYYCARAPLEPPYFDLWGRGTLVTVSS
VL: QSVLTQPPSVSGAPGQRVTISCSGGSSNIGAGYDVHWYQQVPGKGPKVLIYGNTNRPSGVPDRFSGSNFGASASLAITGLQAEDEADYFCQSYDRRLGGPVFGGGTKLTVL
[7]
  Kd: < 0.001 nM
[8]
  Kd: 0.37 nM
[1]
  Kd: 0.49 nM
[2]
  IC50 (ng/mL) in neutralization against RSV: 4.8 ng/mL
[3]
  IC50 (ng/mL) in neutralization against MPV: 1.16 ng/mL
[4]
  Binding (FACS) relative to parental mAb MPK104-v1.1: 1
[5]
  Binding (FACS) relative to parental mAb MPK104-v1.1: 1.1
[6]
  Kd: < 0.001 nM

B3: MPH12 VH-FRGL / MPH12 VL-FRGL-D25E (antibody, V domains shown)
VH: QVQLVESGGGLVKPGGSLRLSCAASGFTFSGFYMKWIRQAPGKGLEWVSSISASGSYTNYADSVEGRFTISRDNAKNSLYLQMNSLRAEDTAVYYCARGDSYCGASACHGEFFHKWGQGTLVTVSS
VL: QSVLTQPPSVSGAPGQRVTISCTGSESNIGADFDVHWYQQLPGTAPKLLIYGNINRPSGVPDRFSGSKSGTSASLAITGLQAEDEADYYCQSYDRSLHYVFGTGTKVTVL
[9]
  EC50: 47.2 ng/mL

B4: MPH12 VH-FRGL-S63A / MPH12 VL-FRGL-D25E (antibody, V domains shown)
VH: QVQLVESGGGLVKPGGSLRLSCAASGFTFSGFYMKWIRQAPGKGLEWVSSISASGSYTNYADAVEGRFTISRDNAKNSLYLQMNSLRAEDTAVYYCARGDSYCGASACHGEFFHKWGQGTLVTVSS
VL: QSVLTQPPSVSGAPGQRVTISCTGSESNIGADFDVHWYQQLPGTAPKLLIYGNINRPSGVPDRFSGSKSGTSASLAITGLQAEDEADYYCQSYDRSLHYVFGTGTKVTVL
[9]
  EC50: 34.7 ng/mL

B5: MPH12-v35 (VH-FRGL-D62E/VL-FRGL-D25S) (antibody, V domains shown)
VH: QVQLVESGGGLVKPGGSLRLSCAASGFTFSGFYMKWIRQAPGKGLEWVSSISASGSYTNYAESVEGRFTISRDNAKNSLYLQMNSLRAEDTAVYYCARGDSYCGASACHGEFFHKWGQGTLVTVSS
VL: QSVLTQPPSVSGAPGQRVTISCTGSSSNIGADFDVHWYQQLPGTAPKLLIYGNINRPSGVPDRFSGSKSGTSASLAITGLQAEDEADYYCQSYDRSLHYVFGTGTKVTVL
[10]
  Kd: 0.028 nM
[11]
  Kd: 0.78 nM

B6: MPH12-v34 (VH-FRGL-S63A/VL-FRGL-D25S) (antibody, V domains shown)
VH: QVQLVESGGGLVKPGGSLRLSCAASGFTFSGFYMKWIRQAPGKGLEWVSSISASGSYTNYADAVEGRFTISRDNAKNSLYLQMNSLRAEDTAVYYCARGDSYCGASACHGEFFHKWGQGTLVTVSS
VL: QSVLTQPPSVSGAPGQRVTISCTGSSSNIGADFDVHWYQQLPGTAPKLLIYGNINRPSGVPDRFSGSKSGTSASLAITGLQAEDEADYYCQSYDRSLHYVFGTGTKVTVL
[10]
  Kd: 0.039 nM
[11]
  Kd: 0.82 nM

B7: MPH12 VH / MPH12 VL-FRGL-D25E (antibody, V domains shown)
VH: QVQLVESGGGLVKPGGSLRLSCVASGFTFSGFYMKWIRQAPGKGLEWVSSISASGSYTNYADSVEGRFTVSRDNAKNSLFLLMSSLRAEDTAVYYCARGDSYCGASACHGEFFHKWGQGTLVTVSS
VL: QSVLTQPPSVSGAPGQRVTISCTGSESNIGADFDVHWYQQLPGTAPKLLIYGNINRPSGVPDRFSGSKSGTSASLAITGLQAEDEADYYCQSYDRSLHYVFGTGTKVTVL
[9]
  EC50: 30.6 ng/mL

B8: MPH12-v29 (VH-FRGL-D62E/VL-S26A) (antibody, V domains shown)
VH: QVQLVESGGGLVKPGGSLRLSCAASGFTFSGFYMKWIRQAPGKGLEWVSSISASGSYTNYAESVEGRFTISRDNAKNSLYLQMNSLRAEDTAVYYCARGDSYCGASACHGEFFHKWGQGTLVTVSS
VL: QSVLTQPPSVSGAPGQRVTISCTGSDANIGADFDVHWYQQLPGTAPKLLIYGNINRPSGVPDRFSGSRSGTSAFLAITRLQAEDEADYYCQSYDRSLHYVFGAGTKVTVL
[9]
  EC50: 42.5 ng/mL
[10]
  Kd: 0.027 nM
[11]
  Kd: 0.64 nM

B9: MPH12-v17 (VH-FRGL-D62E/VL-D25S) (antibody, V domains shown)
VH: QVQLVESGGGLVKPGGSLRLSCAASGFTFSGFYMKWIRQAPGKGLEWVSSISASGSYTNYAESVEGRFTISRDNAKNSLYLQMNSLRAEDTAVYYCARGDSYCGASACHGEFFHKWGQGTLVTVSS
VL: QSVLTQPPSVSGAPGQRVTISCTGSSSNIGADFDVHWYQQLPGTAPKLLIYGNINRPSGVPDRFSGSRSGTSAFLAITRLQAEDEADYYCQSYDRSLHYVFGAGTKVTVL
[9]
  EC50: 25.1 ng/mL
[10]
  Kd: 0.028 nM
[11]
  Kd: 0.55 nM

B10: MPK177 (antibody, V domains shown)
VH: EVQLVQSGAEVKKPGESLKISCQVSGYSFMNYWVGWVRQMPGKGLEWMGIIYPFDSDTIYSPSFQGHVTISADTSITTAYLHWSSLKASDTATYYCARFTFGIAVVADGLSGDGEAFDIWGQGTVVTVSS
VL: DIVMTQTPATLSVSPGERATLSCRASQSVAGKLAWYQQRPGQTPRLLIYGASTRATGVPARFSGSGSETEFTLTISSLQSEDFAVYYCQQYSSWPHAFGQGTRLDIK
[12]
  RSV Neutralization - IC50: 1 ng/mL
[13]
  Kd: 0.001 nM

B11: MPK195 (antibody, V domains shown)
VH: EVQLVQSGAAVKKPGESLKISCRGSGYSFINYWIGWVRQMPGKGLEWMGVIYPFDSDTQYSPSFQGHVTISADKSINTAYLQWDSLKAADTAIYYCARFTFGIALSTADVYGEGQAFDIWGPGTMVTVSS
VL: EIVLTQSPATLSVSPGERATLSCRASQSVAGKIAWYQQRPGQAPRLLIYGASTRATGVPARFSGSGSETEFTLTISSLQSEDFAVYYCQQYSNWPQAFGPGTRLDMK
[12]
  RSV Neutralization - IC50: 1.1 ng/mL
[13]
  Kd: 0.001 nM

B12: RSD5-FR-GL-rIgG1 (antibody, V domains shown)
VH: QVQLVESGGGVVQPGRSLRLSCAASGFAFNNFAMHWVRQAPGKGLEWVAVVSYDGTSPYYADSVKGRFTISRDNSKNTLYLQMNSLRAEDTAVYYCARGLGSGSYSWIGYFYAMDVWGQGTTVTVSS
VL: QSALTQPASVSGSPGQSITISCTGTSSDVGGYVYVSWYQQHPGKAPKLMIYDVSNRPSGVSNRFSGSKSGNTASLTISGLQAEDEADYYCISYTDRNTVVFGGGTKLTVL
[12]
  RSV Neutralization - IC50: 5.41 ng/mL
[2]
  IC50 (ng/mL) in neutralization against RSV: 1.2 ng/mL
[3]
  IC50 (ng/mL) in neutralization against MPV: > 2000 ng/mL

B13: MPK169-v2 (antibody, V domains shown)
VH: EVQLVQSGAEVKKPGESLTISCQTSGYSFINYWIGWVRQMPGKGLEWMGVIYPFDSDTEYSPSFRGHVTISADKSINTAYLQWNSLGASDTAMYYCARFTFGIALVSGDVNGEGHAFDVWGRGTLVTVSS
VL: EIVLTQSPPTLSVSPGQRATLSCRASQSVADKLAWYQQRPGQAPRLLIYGASSRATGVPARFSGSGSETEFTLTITSLQSEDFALYYCHQYNNWPHAFGQGTRLVIK
[13]
  Kd: 0.62 nM

B14: MPK171-v1 (antibody, V domains shown)
VH: QVQLVQSGAEVKKPGESLKISCKGSGYSFINYWIGWVRQMPGKGLEWMGIIYPFDSDTKYSPSFQGHVTISADKSINTAYVQWSSLKASDTAMYYCARFTFGIAVVTDDVSGEGHAFDIWGQGTMVTVSS
VL: QSVLTQPPSVSGAPGQRVTISCAGSSSNIGAGFDVHWYQQVPGTAPKLLIYNTDNRASGVPDRFSASKSGTSASLAITGLQAEDEADYYCQSYDNSLSGVFGGGTKLTVL
[12]
  RSV Neutralization - IC50: 4.3 ng/mL
[13]
  Kd: 1.2 nM

B15: MPK182 (antibody, V domains shown)
VH: EVQLVESGGGLVKPGGSLRLSCTASLSTFSDYYMTWIRQAPGKGLEWLGYISGSQSQTNLADSVKGRFTISRDNAKKSLYLQMNSLRVEDTATYFCARVHLWFGDLNALDLWGQGTKVTVSS
VL: QSVLTQPPSVSGAPGQRVTISCAGSSSNIGAGFDVHWYQQVPGTAPKLLIYNTDNRASGVPDRFSASKSGTSAFLAITGLQAEDEADYYCQSYDNSLSGVFGGGTKLTVL
[13]
  Kd: 2.8 nM

B16: MPK167 (antibody, V domains shown)
VH: EVQLVQSGPEVKKPGESLKISCKASGYSFINYWIGWVRQMPGKGLEWMGIIYPFDSDTQYSPSFQGHVTISADKSINTAYVQWSSLKASDTAMYYCARFTFGIAVVAGDVSGEGHAFDIWGQGTMVTVSS
VL: EIVMMQSPATLSVSPGERATLSCRASQSVAGNLAWYQQSPGQAPRLLIYGASTRATGVPARFSGSGSETEFTLTISSLQSEDFAVYFCQQYSNWPHAFGQGTRLDIK
[12]
  RSV Neutralization - IC50: 1 ng/mL
[13]
  Kd: 0.011 nM

B17: MPK191 (antibody, V domains shown)
VH: EVQLVQSGAEVKKPGESLKISCKGSGYSFINYWIGWVRQMPGKGLEWMGIIYPFDSDTKYSPSFQGHVTISADKSINTAYVQWSGLKASDTAMYYCARFTFGIAVVAGDVTGEGHAFDVWGQGTMVTVSS
VL: EIVMTQSPATLSVSPGDRATLSCRASQSVAGNLAWYQQRPGQTPRLLIYGASTRASGVPARFSGSGSETEFTLTISSLQSEDFAVYYCQQYDNWPHAFGQGTRLDIK
[12]
  RSV Neutralization - IC50: 1.2 ng/mL
[13]
  Kd: 0.029 nM
